# ± gives the uncertainty stated by the source.
# B1: Membrane-associated guanylate kinase, WW and PDZ domain-containing protein 2, residues 601 to 682; numbered along this chain, Q86UL8 (parent)
# chain: AELMTLTIVKGAQGFGFTIADSPTGQRVKQILDIQGCPGLCEGDLIVEINQQNVQNLSHTEVVDILKDCPIGSETSLIIHRG
# Variants of: B1
# Experiment: abundance fitness (aPCA) (normalised: wild type 0, dead -1); higher = more abundant; growth selection in yeast, the domain comes from the species named
# Conditions: Homo sapiens
row,Variant,abundance fitness
1,C37E,0.005 ± 0.12
2,I65L,-0.072 ± 0.037
3,P23W,-0.03 ± 0.053
4,D21V,-0.064 ± 0.078
5,T60M,0.012 ± 0.11
6,T5N,0.03 ± 0.066
7,Q26Y,0.316 ± 0.4
8,F15W,-0.002 ± 0.039
9,L66A,-0.571 ± 0.12
10,V28P,-1.09 ± 0.37
11,A12Q,-0.037 ± 0.048
12,R27I,0.047 ± 0.3
13,V54H,-1.18 ± 0.15
14,A20M,0.228 ± 0.45
15,G72C,0.046 ± 0.089
16,L77R,-1.17 ± 0.28
17,D68K,0.005 ± 0.13
18,G25S,-0.185 ± 0.051
19,I19W,-0.203 ± 0.1
20,I34C,-0.076 ± 0.086
21,G82A,-0.051 ± 0.11
22,R81T,-0.174 ± 0.12
23,F17M,-0.105 ± 0.044
24,K67E,-0.034 ± 0.17

row,Variant,abundance fitness
1,L57C,-0.046 ± 0.15
2,G39P,-0.083 ± 0.13
3,E42K,-0.016 ± 0.069
4,K67T,0.093 ± 0.11
5,F17T,-1.2 ± 0.13
6,T60K,-0.003 ± 0.15
7,I65F,-0.088 ± 0.074
8,G72T,-0.147 ± 0.092
9,T7Q,-0.085 ± 0.048
10,S22L,-0.049 ± 0.085
11,I71C,-0.101 ± 0.23
12,M4P,-0.081 ± 0.04
13,I71H,-0.18 ± 0.23
14,I8P,-0.09 ± 0.046
15,D33P,-0.147 ± 0.051
16,V9D,-0.184 ± 0.065
17,F17Y,-0.277 ± 0.061
18,L6T,-0.059 ± 0.05
19,I19C,-0.335 ± 0.38
20,Q30F,0.234 ± 0.24
21,G36N,0.055 ± 0.21
22,R81N,-0.144 ± 0.37
23,E48A,-0.193 ± 0.094
24,D44L,-1.27 ± 0.3

row,Variant,abundance fitness
1,S73T,-0.095 ± 0.12
2,G25W,-0.531 ± 0.069
3,T7E,-0.133 ± 0.039
4,G39T,-0.017 ± 0.2
5,A12D,-0.02 ± 0.064
6,D21M,0.079 ± 0.24
7,E74D,0.137 ± 0.15
8,C37T,-0.05 ± 0.15
9,V9M,0.003 ± 0.053
10,S73Q,-0.098 ± 0.11
11,D21E,-0.023 ± 0.12
12,Q30W,0.04 ± 0.27
13,H80C,-0.121 ± 0.11
14,V62L,-0.114 ± 0.087
15,L6I,0.008 ± 0.061
16,V28A,-0.305 ± 0.22
17,E48Q,-0.098 ± 0.17
18,V62F,-0.345 ± 0.31
19,F15D,-0.118 ± 0.052
20,A20E,-0.147 ± 0.16
21,L32A,-0.218 ± 0.27
22,M4T,-0.014 ± 0.038
23,G16A,-0.144 ± 0.038
24,L77D,-1.28 ± 0.48

row,Variant,abundance fitness
1,V63A,0.001 ± 0.067
2,G11V,0.027 ± 0.047
3,F15M,0.039 ± 0.044
4,T24H,0.02 ± 0.071
5,L45S,0.256 ± 0.26
6,V47G,-0.164 ± 0.063
7,P70K,-0.056 ± 0.24
8,C41A,0.042 ± 0.04
9,C41W,-0.058 ± 0.039
10,G25K,-0.267 ± 0.089
11,K29H,0.181 ± 0.33
12,E48M,-0.144 ± 0.2
13,G11M,-0.095 ± 0.062
14,N56V,-0.128 ± 0.094
15,N53P,-0.001 ± 0.034
16,R27W,-0.054 ± 0.18
17,A20G,-0.069 ± 0.1
18,D44E,-0.874 ± 0.22
19,I34T,-0.072 ± 0.067
20,V47D,-0.161 ± 0.33
21,M4F,0.058 ± 0.054
22,D21Y,-0.099 ± 0.15
23,G72W,-0.243 ± 0.1
24,T7C,-0.027 ± 0.042

row,Variant,abundance fitness
1,V9H,-0.222 ± 0.083
2,D64T,-0.126 ± 0.12
3,I78F,-0.035 ± 0.27
4,I71R,-0.082 ± 0.076
5,T7L,-0.075 ± 0.036
6,I78N,-0.011 ± 0.2
7,L6R,-0.123 ± 0.031
8,D68W,-0.166 ± 0.15
9,L32Q,-0.212 ± 0.25
10,Q35V,-0.064 ± 0.17
11,T18H,-0.134 ± 0.073
12,E42F,-0.123 ± 0.1
13,Q51C,-0.067 ± 0.059
14,C69Q,-0.125 ± 0.13
15,Q55G,0.073 ± 0.059
16,Q51N,0.045 ± 0.044
17,T18Q,-0.066 ± 0.048
18,I79M,-0.005 ± 0.16
19,E2N,0.009 ± 0.063
20,A20V,-0.11 ± 0.085
21,R27L,-0.007 ± 0.12
22,K67Q,-0.145 ± 0.13
23,G16W,-0.045 ± 0.037
24,V63G,-0.067 ± 0.074

row,Variant,abundance fitness
1,K10I,-0.185 ± 0.077
2,I71K,-0.117 ± 0.24
3,H59M,0.065 ± 0.1
4,E61D,-0.005 ± 0.37
5,T75P,-0.164 ± 0.078
6,N53G,-0.051 ± 0.037
7,S22W,-0.056 ± 0.15
8,L3H,0.035 ± 0.047
9,V54S,-0.243 ± 0.034
10,R81W,-0.52 ± 0.12
11,G11F,-0.114 ± 0.1
12,P70C,-0.315 ± 0.19
13,V54Y,-1 ± 0.12
14,V54F,-0.867 ± 0.082
15,Q51A,-0.012 ± 0.043
16,N53E,-0.043 ± 0.047
17,K67C,-0.117 ± 0.11
18,C41Q,-0.001 ± 0.061
19,M4G,-0.118 ± 0.029
20,L45W,-0.161 ± 0.15
21,T5P,-0.033 ± 0.048
22,I49R,-0.875 ± 0.17
23,Q51D,-0.024 ± 0.05
24,T75S,-0.331 ± 0.082

row,Variant,abundance fitness
1,V47E,0.004 ± 0.12
2,Q30H,-0.062 ± 0.15
3,I71L,-0.099 ± 0.1
4,G11R,-0.094 ± 0.038
5,D68E,-0.022 ± 0.088
6,V28I,0.144 ± 0.23
7,H80E,0.019 ± 0.11
8,V47Q,0.033 ± 0.26
9,T18G,-0.068 ± 0.032
10,R81D,-0.538 ± 0.41
11,I19P,-0.023 ± 0.36
12,G39D,-0.197 ± 0.17
13,E48T,-0.226 ± 0.18
14,K67W,-0.224 ± 0.24
15,S22F,-0.105 ± 0.094
16,I65D,-0.542 ± 0.13
17,E74Q,-0.074 ± 0.16
18,L66Y,-0.736 ± 0.45
19,K10C,-0.192 ± 0.046
20,E61G,-0.036 ± 0.065
21,L57S,0.028 ± 0.06
22,I8Q,-0.08 ± 0.043
23,Q51P,-0.749 ± 0.07
